By Kd is commonly meant the constant that tells how readily two partners part at equilibrium. Higher therefore signals a looser complex.

Results on one substance are retold here after paper PMC12486813.

For this experiment, the target named is FcγRI (CD64) (UniProt P12314). As to the kind of experiment: BLI; binding-dissociation kinetics of FcγRI (CD64) with the antibody; who was immobilised not stated for this experiment; KD is the average of two independent experiments. (In general: BLI is a label-free optical method that tracks binding on a fibre tip over time.)
Sequence of UniProt P12314 (P12314 16-374): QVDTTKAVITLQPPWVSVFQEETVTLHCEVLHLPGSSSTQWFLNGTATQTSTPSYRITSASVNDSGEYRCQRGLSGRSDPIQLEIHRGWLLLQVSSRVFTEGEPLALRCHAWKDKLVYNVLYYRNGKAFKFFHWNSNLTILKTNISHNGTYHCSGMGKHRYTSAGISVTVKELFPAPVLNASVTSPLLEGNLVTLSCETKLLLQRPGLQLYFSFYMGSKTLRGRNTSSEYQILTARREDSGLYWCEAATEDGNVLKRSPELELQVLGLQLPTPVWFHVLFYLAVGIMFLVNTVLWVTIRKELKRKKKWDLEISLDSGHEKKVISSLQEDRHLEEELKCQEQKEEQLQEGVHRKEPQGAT

The substance 5C8 (LALA) (antibody) displayed a Kd of 4.82 µM.
